Test results from patent US20230227512A1 (published 2023).

B1: VRC01 (antibody, V domains shown)
VH: QVQLVQSGGQMKKPGESMRISCRASGYEFIDCTLNWIRLAPGKRPEWMGWLKPRGGAVNYARPLQGRVTMTRDVYSDTAFLELRSLTVDDTAVYFCTRGKNCDYNWDFEHWGRGTPVIVSS
VL: EIVLTQSPGTLSLSPGETAIISCRTSQYGSLAWYQQRPGQAPRLVIYSGSTRAAGIPDRFSGSRWGPDYNLTISNLESGDFGVYYCQQYEFFGQGTKVQVDI
B2: 447-52D antibody (antibody, V domains shown)
VH: EVQLVESGGGLVKPGGSLRLTCVASGFTFSDVWLNWVRQAPGKGLEWVGRIKSRTDGGTTDYAASVKGRFTISRDDSKNTLYLQMNSLKTEDTAVYSCTTDGFIMIRGVSEDYYYYYMDVWGKGTTVTVSS
VL: QSVLTQPPSVSAAPGQKVTISCSGSSSNIGNNYVLWYQQFPGTAPKLLIYGNNKRPSGIPDRFSGSKSGTSATLGITGLQTGDEADYFCATWDSGLSADWVFGGGTKLTVL
B3: PGT151 Fab (Fab, V domains shown)
VH: RVQLVESGGGVVQPGKSVRLSCVVSDFPFSKYPMYWVRQAPGKGLEWVAAISGDAWHVVYSNSVQGRFLVSRDNVKNTLYLEMNSLKIEDTAVYRCARMFQESGPPRLDRWSGRNYYYYSGMDVWGQGTTVTVSS
VL: DIVMTQTPLSLSVTPGQPASISCKSSESLRQSNGKTSLYWYRQKPGQSPQLLVFEVSNRFSGVSDRFVGSGSGTDFTLRISRVEAEDVGFYYCMQSKDFPLTFGGGTKVDLKR
B4: F105 antibody (antibody, V domains shown)
VH: QVQLQESGPGLVKPSETLSLTCTVSGGSISSHYWSWIRQSPGKGLQWIGYIYYSGSTNYSPSLKSRVTISVETAKNQFSLKLTSMTAADTAVYYCARGPVPAVFYGDYRLDPWGQGTLVTVSS
VL: EIVLTQSPGTLSLSAGERATLSCRASQSVSSRYLAWYQQKPGQAPRLLIYGASSRATGIPDRFSGSGSGTDFTLTISRVEPEDFAVYYCQQYDNSVCTFGQGTKLEIK
B5: 35O22 Fab (Fab, V domains shown)
VH: QGQLVQSGAELKKPGASVKISCKTSGYRFNFYHINWIRQTAGRGPEWMGWISPYSGDKNLAPAFQDRVIMTTDTEVPVTSFTSTGAAYMEIRNLKFDDTGTYFCAKGLLRDGSSTWLPYLWGQGTLLTVSS
VL: QSVLTQSASVSGSLGQSVTISCTGPNSVCCSHKSISWYQWPPGRAPTLIIYEDNERAPGISPRFSGYKSYWSAYLTISDLRPEDETTYYCCSYTHNSGCVFGTGTKVSVL
B6: PGT145 antibody (antibody, V domains shown)
VH: QVQLVQSGAEVKKPGSSVKVSCKASGNSFSNHDVHWVRQATGQGLEWMGWMSHEGDKTGLAQKFQGRVTITRDSGASTVYMELRGLTADDTAIYYCLTGSKHRLRDYFLYNEYGPNYEEWGDYLATLDVWGHGTAVTVSS
VL: EVVITQSPLFLPVTPGEAASLSCKCSHSLQHSTGANYLAWYLQRPGQTPRLLIHLATHRASGVPDRFSGSGSGTDFTLKISRVESDDVGTYYCMQGLHSPWTFGQGTKVEIK

Assays:
[1] = target: BG505.SOSIP.664.201C-433C HIV-1 Env ectodomain trimer; assay: BLI
[2] = target: BG505.SOSIP.664.201C-433C HIV-1 Env ectodomain trimer; assay: SPR
[3] = target: BG505 SOSIP.664 HIV-1 Env ectodomain trimer; assay: SPR
[4] = target: T1, BG505 SOSIP.664 trimer+sCD4 complex (human, UniProt P01730 26-208); assay: SPR
[5] = target: BG505.SOSIP.664.201C-433C HIV-1 Env ectodomain trimer; assay: SPR; remark: listed apart in the source
[6] = target: BG505 SOSIP.664 HIV-1 Env ectodomain trimer; assay: BLI
[7] = target: BG505.SOSIP.664.201C-433C HIV-1 Env ectodomain trimer; assay: BLI; remark: listed apart in the source
[8] = target: BG505.SOSIP.664.201C-433C HIV-1 Env ectodomain trimer; assay: SPR; +sCD4
[9] = target: BG505 SOSIP.664 HIV-1 Env ectodomain trimer; assay: SPR; 2G12 capture
[10] = target: BG505 SOSIP.664 HIV-1 Env ectodomain trimer; assay: SPR; CD4 Ig capture
[11] = target: T1, BG505 SOSIP.664 trimer+sCD4 complex; assay: SPR; 17b capture
[12] = target: BG505 SOSIP.664 HIV-1 Env ectodomain trimer; assay: SPR; CD4 Ig capture; remark: listed apart in the source

Row | Binder | Kd [1] | Kd [2] | Kd [3] | Kd [4] | Kd [5] | Kd [6] | Kd [7] | Kd [8] | Kd [9] | Kd [10] | Kd [11] | Kd [12]
1 | B1 | 2.81 nM | 1.43 nM |  |  |  |  |  |  |  |  |  | 
2 | B2 |  |  | > 1000 nM | 1.2 nM | > 1000 nM | > 4000 nM | > 4000 nM | > 1000 nM |  |  |  | 
3 | B3 |  |  | 158 nM |  | 78.4 nM | 135 nM | 202 nM |  | 144 nM | 106 nM |  | 
4 | B4 |  |  | > 1000 nM |  | > 1000 nM | > 4000 nM | > 4000 nM |  |  |  |  | 
5 | B5 | 27.7 nM | 3.04 nM |  |  |  |  |  |  |  |  | 27.2 nM | 28 nM
6 | B6 |  |  | 4.38 nM |  | 7.22 nM | 1.8 nM | 1.68 nM |  | 22.8 nM |  |  | 
